Experiments:
[1] = target: HIV-1_(YU-2) gp140 trimer (HIV-1 YU-2); test: BLI; kinetic
[2] = target: HIV-1_(YU-2) gp140 trimer (HIV-1 YU-2); test: BLI; equilibrium

B1: IgG1 b12 EFTAE Fc variant (antibody, V domains shown)
VH: QVQLVQSGAEVKKPGASVKVSCQASGYRFSNFVIHWVRQAPGQRFEWMGWINPYNGNKEFSAKFQDRVTFTADTSANTAYMELRSLRSADTAVYYCARVGPYSWDDSPQDNYYMDVWGKGTTVIVSS
VL: EIVLTQSPGTLSLSPGERATFSCRSSHSIRSRRVAWYQHKPGQAPRLVIHGVSNRASGISDRFSGSGSGTDFTLTITRVEPEDFALYYCQVYGASSYTFGQGTKLERK
[1]
  Kd: 2.78 nM
[2]
  Kd: 1.93 nM

B2: IgG1 b12 LALA Fc variant (antibody, V domains shown)
VH: QVQLVQSGAEVKKPGASVKVSCQASGYRFSNFVIHWVRQAPGQRFEWMGWINPYNGNKEFSAKFQDRVTFTADTSANTAYMELRSLRSADTAVYYCARVGPYSWDDSPQDNYYMDVWGKGTTVIVSS
VL: EIVLTQSPGTLSLSPGERATFSCRSSHSIRSRRVAWYQHKPGQAPRLVIHGVSNRASGISDRFSGSGSGTDFTLTITRVEPEDFALYYCQVYGASSYTFGQGTKLERK
[1]
  Kd: 2.06 nM
[2]
  Kd: 2.04 nM

B3: IgG1 b12 EG Fc variant (antibody, V domains shown)
VH: QVQLVQSGAEVKKPGASVKVSCQASGYRFSNFVIHWVRQAPGQRFEWMGWINPYNGNKEFSAKFQDRVTFTADTSANTAYMELRSLRSADTAVYYCARVGPYSWDDSPQDNYYMDVWGKGTTVIVSS
VL: EIVLTQSPGTLSLSPGERATFSCRSSHSIRSRRVAWYQHKPGQAPRLVIHGVSNRASGISDRFSGSGSGTDFTLTITRVEPEDFALYYCQVYGASSYTFGQGTKLERK
[1]
  Kd: 2.26 nM
[2]
  Kd: 0.9 nM

B4: IgG1 b12 KA Fc variant (antibody, V domains shown)
VH: QVQLVQSGAEVKKPGASVKVSCQASGYRFSNFVIHWVRQAPGQRFEWMGWINPYNGNKEFSAKFQDRVTFTADTSANTAYMELRSLRSADTAVYYCARVGPYSWDDSPQDNYYMDVWGKGTTVIVSS
VL: EIVLTQSPGTLSLSPGERATFSCRSSHSIRSRRVAWYQHKPGQAPRLVIHGVSNRASGISDRFSGSGSGTDFTLTITRVEPEDFALYYCQVYGASSYTFGQGTKLERK
[1]
  Kd: 2.56 nM
[2]
  Kd: 2.95 nM

B5: IgG1 b12 (unmodified Fc) (antibody, V domains shown)
VH: QVQLVQSGAEVKKPGASVKVSCQASGYRFSNFVIHWVRQAPGQRFEWMGWINPYNGNKEFSAKFQDRVTFTADTSANTAYMELRSLRSADTAVYYCARVGPYSWDDSPQDNYYMDVWGKGTTVIVSS
VL: EIVLTQSPGTLSLSPGERATFSCRSSHSIRSRRVAWYQHKPGQAPRLVIHGVSNRASGISDRFSGSGSGTDFTLTITRVEPEDFALYYCQVYGASSYTFGQGTKLERK
[1]
  Kd: 1.72 nM
[2]
  Kd: 2.18 nM

— PMC8510540 (2021)
